Test results published in patent CN117858904A.

Target: 人SIRPα抗原 (human signal regulatory protein alpha, proprietary antigen) (human) (UniProt P78324)
Assay: BLI (Octet Red384), SIRPa on AR2G sensor, 50 nM CD47 without antibody as analyte (positive control), 1200 s association

Sequence of UniProt P78324 (P78324 31-370 limits assumed): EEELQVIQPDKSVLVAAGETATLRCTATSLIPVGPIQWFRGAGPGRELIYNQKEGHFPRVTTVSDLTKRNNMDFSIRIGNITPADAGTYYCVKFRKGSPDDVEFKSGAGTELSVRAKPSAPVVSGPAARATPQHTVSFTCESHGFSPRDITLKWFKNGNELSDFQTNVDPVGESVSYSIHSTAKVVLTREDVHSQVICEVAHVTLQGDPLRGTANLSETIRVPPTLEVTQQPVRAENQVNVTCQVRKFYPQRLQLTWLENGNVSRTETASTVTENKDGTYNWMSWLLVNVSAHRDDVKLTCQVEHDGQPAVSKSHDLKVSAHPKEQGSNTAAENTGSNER

“专有CD47抗原 (proprietary human CD47 antigen of Examples 6 and 7) (from UniProt Q08722 19-139) (receptor)” was tested, and the 信号 (response) was 0.297 nm.
